Experimental data taken from publication PMC5216119, “An allosteric conduit facilitates dynamic multisite substrate recognition by the SCF^Cdc4 ubiquitin ligase” (Nature Communications, 2017).
Where two headings read alike, the source gives them in different places. Square brackets hold non-standard residues; d marks the D form. Ends that are not written are not given here. Peptide text beside a SMILES is read from it. pT = C[C@@H](OP(=O)(O)O)[C@H](N)C(=O)O; pS = N[C@@H](COP(=O)(O)O)C(=O)O

Assays:
Skp1-Cdc4 complex = Skp1-Cdc4 complex (Saccharomyces cerevisiae, UniProt P07834+P52286); assay: Fluorescence polarization binding of fluorescein-labelled Ash1 peptides to Skp1-Cdc4; set-up: species or system yeast; conditions: 10 nM fluorescein-labelled peptide, increasing recombinant Skp1-Cdc4 complex; 10 mM HEPES pH 7.5, 40 mM NaCl, 0.1 mg ml^−1 BSA, 1 mM DTT; ex 485 / em 535 nm; read-out: Kd (μM) from fluorescence polarization
From the text: Figure 6 NMR titration of IM-labelled Cdc4^WD40 with Ash1 peptides. (a) Combined ^1H and ^13C chemical shifts of Cdc4^WD40 on binding of Ash1 peptides, with pT286 peptide in red, pT290 peptide in green, pS294 peptide in yellow, and the peptide phosphorylated on all three CPDs in blue. Assigned Ile and Met residues are labelled with residue number. Chemical shifts for the two bound states in titration with pT286 and triply phosphorylated peptides are reported on the same bars with stripes or without stripes. […] (f) Fluorescence polarization of the fluorescein-labelled Ash1 peptides (circle, pT286/pT290/pS294, square, pT286/pT290, triangle, pT290/pS294, inverted triangle doubly phosphorylated CycE peptide) in the presence of increasing concentrations of the recombinant Skp1-Cdc4 complex (mP, millipolarization unit). (g) Fluorescence polarization of the fluorescein-labelled Ash1 peptides (circle, pT286/pT290/pS294, square, pT286/pT290, triangle, pT290/pS294, inverted triangle, doubly phosphorylated CycE peptide) in the presence of increasing concentrations of the SCF-I2 inhibitor.
Fluorescence polarization assays containing 0.21 μM Skp1-Cdc4 complex and 10 nM fluorescently labelled cyclin E-derived or Ash1-derived phosphopeptides in 10 mM HEPES (pH 7.5), 40 mM NaCl, 0.1 mg ml^−1 BSA and 1 mM DTT in a final volume of 23.5 μl per well were performed on an Analyst HT plate reader (Molecular Devices Corp., Sunnyvale CA). Samples were excited at 485 nm and emission was read at 535 nm (ref. [26]).

[1] = molecular target: Cdc4 (Saccharomyces cerevisiae) (UniProt P07834); conditions: cited from earlier work
[2] = molecular target: Cdc4 (Saccharomyces cerevisiae) (UniProt P07834); conditions: cited from earlier work; remark: listed apart in the source
[3] = molecular target: Cdc4 (Saccharomyces cerevisiae) (UniProt P07834); conditions: cited from earlier work; remark: listed apart in the source
[4] = molecular target: Cdc4 (Saccharomyces cerevisiae) (UniProt P07834); conditions: cited from earlier work; remark: listed apart in the source
[5] = molecular target: Cdc4 (Saccharomyces cerevisiae) (UniProt P07834); conditions: cited from earlier work; remark: listed apart in the source
[6] = molecular target: Cdc4 (Saccharomyces cerevisiae) (UniProt P07834); conditions: cited from earlier work; remark: listed apart in the source
[7] = molecular target: Cdc4 (Saccharomyces cerevisiae) (UniProt P07834); conditions: cited from earlier work; remark: listed apart in the source
[8] = molecular target: Cdc4 (Saccharomyces cerevisiae) (UniProt P07834); conditions: cited from earlier work; remark: listed apart in the source
[9] = molecular target: Cdc4-Skp1 (Saccharomyces cerevisiae) (UniProt P07834); assay: intrinsic Trp fluorescence; conditions: cited from earlier work
[10] = molecular target: fluorescein-labelled Ash1^18pT290/pS294 peptide (yeast); assay: fluorescence polarisation; 10 nM fluorescein-labelled peptide with increasing concentrations of the recombinant Skp1-Cdc4 complex; 10 mM HEPES pH 7.5, 40 mM NaCl, 0.1 mg/ml BSA, 1 mM DTT
[11] = molecular target: fluorescein-labelled Ash1^18pT286/pT290 peptide (yeast); assay: as above
[12] = molecular target: fluorescein-labelled Ash1^18pT286/pT290/pS294 peptide (yeast); assay: as above
[13] = molecular target: T1, Cdc4^WD40 (isolated WD40 domain of the yeast F-box protein Cdc4, residues 367-744), wild type (yeast, UniProt P07834 367-744); assay: other fluorescence titration; intrinsic Trp fluorescence (excitation 298 nm, emission 366 nm); 0.5 μM Cdc4, ligand titrated; 50 mM Tris, 150 mM NaCl, 5 mM DTT, pH 7.5, 20 °C; 1:1 stoichiometry assumed; conditions: both partners purified
T1 construct: Cdc4, yeast F-box protein, WD40 domain, residues 367-744; For the NMR experiments the protein was U-[15N,2H], Ile-delta1-[13CH3], Met-epsilon-[13CH3] labelled (IM-labelled); also called wt Cdc4^WD40; Cdc4 WD40 domain; source: E. coli BL21(DE3) codonPlus, purified (Ni-NTA, Ulp protease, Ni-NTA, Superdex 200)
T1 sequence (looked up): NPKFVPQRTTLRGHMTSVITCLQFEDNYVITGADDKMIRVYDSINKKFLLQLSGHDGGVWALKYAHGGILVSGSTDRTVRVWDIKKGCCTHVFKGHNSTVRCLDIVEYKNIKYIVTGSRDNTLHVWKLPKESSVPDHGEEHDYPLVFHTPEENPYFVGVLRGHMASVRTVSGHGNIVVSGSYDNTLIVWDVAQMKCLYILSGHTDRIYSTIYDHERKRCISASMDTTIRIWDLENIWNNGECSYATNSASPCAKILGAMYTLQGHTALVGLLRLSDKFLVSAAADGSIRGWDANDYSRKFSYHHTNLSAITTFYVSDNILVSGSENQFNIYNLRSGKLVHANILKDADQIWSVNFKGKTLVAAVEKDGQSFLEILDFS

R664Q Cdc4^WD40 = molecular target: T2, R664Q Cdc4^WD40 (yeast, UniProt P07834 367-744, R664Q); assay: as above; conditions: both partners purified
T2 construct: Cdc4, yeast F-box protein, WD40 domain, residues 367-744, with Arg664Gln in the allosteric pocket; also called Arg664Gln Cdc4^WD40; mutant (Arg664Gln) Cdc4^WD40; source: E. coli, purified as the wild type (Ni-NTA, Ulp protease, Ni-NTA, Superdex 200)
T2 sequence (looked up): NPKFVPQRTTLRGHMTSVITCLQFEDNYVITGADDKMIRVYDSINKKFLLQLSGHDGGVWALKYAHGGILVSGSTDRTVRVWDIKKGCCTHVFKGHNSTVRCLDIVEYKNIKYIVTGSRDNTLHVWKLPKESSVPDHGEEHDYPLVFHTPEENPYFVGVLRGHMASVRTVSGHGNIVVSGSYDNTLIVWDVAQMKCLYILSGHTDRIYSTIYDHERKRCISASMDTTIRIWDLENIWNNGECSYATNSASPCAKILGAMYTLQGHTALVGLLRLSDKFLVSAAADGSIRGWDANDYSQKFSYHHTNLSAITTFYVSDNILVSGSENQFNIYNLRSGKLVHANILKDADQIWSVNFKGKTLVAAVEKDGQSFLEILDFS

Chain of Cdc4 (Saccharomyces cerevisiae) (P07834 whole entry): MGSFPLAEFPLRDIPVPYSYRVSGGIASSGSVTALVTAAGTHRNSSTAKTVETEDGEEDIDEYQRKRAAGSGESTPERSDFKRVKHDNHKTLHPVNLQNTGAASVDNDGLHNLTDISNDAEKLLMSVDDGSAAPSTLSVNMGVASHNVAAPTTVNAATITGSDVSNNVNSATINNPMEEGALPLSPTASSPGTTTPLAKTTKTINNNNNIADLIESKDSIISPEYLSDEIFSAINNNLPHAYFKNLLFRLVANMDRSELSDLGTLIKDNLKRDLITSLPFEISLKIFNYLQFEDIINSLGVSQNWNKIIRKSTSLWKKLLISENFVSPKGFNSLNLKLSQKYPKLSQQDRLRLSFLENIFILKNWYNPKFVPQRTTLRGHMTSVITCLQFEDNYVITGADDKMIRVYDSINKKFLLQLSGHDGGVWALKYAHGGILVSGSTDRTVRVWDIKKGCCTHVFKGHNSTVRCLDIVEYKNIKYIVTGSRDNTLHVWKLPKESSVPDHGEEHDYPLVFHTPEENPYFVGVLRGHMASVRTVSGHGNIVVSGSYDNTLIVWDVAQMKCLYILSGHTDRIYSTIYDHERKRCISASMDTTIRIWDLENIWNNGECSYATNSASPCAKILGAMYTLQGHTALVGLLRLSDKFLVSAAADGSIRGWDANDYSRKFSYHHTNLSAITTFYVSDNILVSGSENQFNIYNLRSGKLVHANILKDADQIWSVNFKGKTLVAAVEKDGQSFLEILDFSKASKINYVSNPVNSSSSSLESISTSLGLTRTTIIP
Chain of Skp1-Cdc4 complex (P07834 whole entry): as above
Chain of Skp1-Cdc4 complex (P52286 whole entry partner): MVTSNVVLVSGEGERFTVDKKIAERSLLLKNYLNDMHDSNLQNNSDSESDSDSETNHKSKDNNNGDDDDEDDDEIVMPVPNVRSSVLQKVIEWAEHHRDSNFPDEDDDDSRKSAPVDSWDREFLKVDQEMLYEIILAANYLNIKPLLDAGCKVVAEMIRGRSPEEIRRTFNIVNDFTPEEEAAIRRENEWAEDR
Chain of Cdc4-Skp1 (Saccharomyces cerevisiae) (P07834 whole entry, chain 1 of 2): as the sequence (P07834 whole entry) above
Chain of Cdc4-Skp1 (Saccharomyces cerevisiae) (P52286 2-194, chain 2 of 2, further chain): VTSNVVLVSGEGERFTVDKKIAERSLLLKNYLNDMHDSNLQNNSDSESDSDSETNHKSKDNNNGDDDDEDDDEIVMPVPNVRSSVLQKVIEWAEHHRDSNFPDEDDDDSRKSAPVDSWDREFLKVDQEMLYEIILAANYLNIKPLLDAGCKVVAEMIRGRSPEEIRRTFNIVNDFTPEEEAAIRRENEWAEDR
Chain of Sic1 (P38634 whole entry): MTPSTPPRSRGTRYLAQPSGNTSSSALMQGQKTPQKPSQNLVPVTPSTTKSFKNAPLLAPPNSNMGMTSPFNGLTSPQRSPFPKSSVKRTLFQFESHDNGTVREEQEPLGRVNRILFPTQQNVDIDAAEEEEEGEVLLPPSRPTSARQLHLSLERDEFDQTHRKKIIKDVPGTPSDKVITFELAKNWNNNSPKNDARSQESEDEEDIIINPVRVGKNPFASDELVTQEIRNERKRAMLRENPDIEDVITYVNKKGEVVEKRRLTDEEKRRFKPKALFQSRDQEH
Chain of pSic1 (P38634 whole entry): as above
Chain of pSic1 1-90 (P38634 1-90): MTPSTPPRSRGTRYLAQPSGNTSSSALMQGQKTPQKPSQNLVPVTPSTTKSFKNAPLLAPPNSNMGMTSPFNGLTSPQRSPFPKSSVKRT
Chain of Ash1 pT290 peptide (P34233 whole entry): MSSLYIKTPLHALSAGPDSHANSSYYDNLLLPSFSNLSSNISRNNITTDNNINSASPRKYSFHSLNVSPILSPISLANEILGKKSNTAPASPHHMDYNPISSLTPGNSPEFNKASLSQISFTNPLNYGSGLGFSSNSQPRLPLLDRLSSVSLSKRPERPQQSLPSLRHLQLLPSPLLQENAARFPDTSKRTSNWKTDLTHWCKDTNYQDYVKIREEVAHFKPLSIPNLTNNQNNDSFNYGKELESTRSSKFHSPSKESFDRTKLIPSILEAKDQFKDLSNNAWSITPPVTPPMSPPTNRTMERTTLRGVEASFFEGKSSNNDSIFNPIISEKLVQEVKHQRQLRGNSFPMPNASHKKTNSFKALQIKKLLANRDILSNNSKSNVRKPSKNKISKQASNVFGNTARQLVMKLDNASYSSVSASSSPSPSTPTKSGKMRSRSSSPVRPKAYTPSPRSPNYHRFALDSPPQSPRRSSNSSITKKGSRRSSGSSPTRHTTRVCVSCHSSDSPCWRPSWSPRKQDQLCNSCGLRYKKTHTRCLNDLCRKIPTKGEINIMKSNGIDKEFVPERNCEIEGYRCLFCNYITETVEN
Chain of Ash1 pT286 peptide (P34233 whole entry): as above
Chain of Ash1 pS294 peptide (P34233 whole entry): as above

## CC[C@H](C)[C@H](NC(=O)[C@H](CO)NC(=O)[C@H](Cc1c[nH]c2ccccc12)NC(=O)[C@H](C)N)C(=O)N[C@H](C(=O)N1CCC[C@H]1C(=O)N1CCC[C@H]1C(=O)N[C@H](C(=O)N[C@H](C(=O)N1CCC[C@H]1C(=O)N1CCC[C@H]1C(=O)N[C@@H](CCSC)C(=O)N[C@@H](COP(=O)(O)O)C(=O)N1CCC[C@H]1C(=O)N1CCC[C@H]1C(=O)N[C@H](C(=O)N[C@@H](CC(N)=O)C(=O)N[C@@H](CCCNC(=N)N)C(=O)O)[C@@H](C)O)[C@@H](C)OP(=O)(O)O)C(C)C)[C@@H](C)O [AWSITPPVpTPPMpSPPTNR] (H-AWSITPPV[pT]PPM[pS]PPTNR-OH)
Skp1-Cdc4 complex
  Kd: 0.082 µM

## CC[C@H](C)[C@H](NC(=O)[C@H](CO)NC(=O)[C@H](Cc1c[nH]c2ccccc12)NC(=O)[C@H](C)N)C(=O)N[C@H](C(=O)N1CCC[C@H]1C(=O)N1CCC[C@H]1C(=O)N[C@H](C(=O)N[C@H](C(=O)N1CCC[C@H]1C(=O)N1CCC[C@H]1C(=O)N[C@@H](CCSC)C(=O)N[C@@H](CO)C(=O)N1CCC[C@H]1C(=O)N1CCC[C@H]1C(=O)N[C@H](C(=O)N[C@@H](CC(N)=O)C(=O)N[C@@H](CCCNC(=N)N)C(=O)O)[C@@H](C)O)[C@@H](C)OP(=O)(O)O)C(C)C)[C@@H](C)OP(=O)(O)O [AWSIpTPPVpTPPMSPPTNR] (H-AWSI[pT]PPV[pT]PPMSPPTNR-OH)
Skp1-Cdc4 complex
  Kd: 0.069 µM

## CC[C@H](C)[C@H](NC(=O)[C@H](CO)NC(=O)[C@H](Cc1c[nH]c2ccccc12)NC(=O)[C@H](C)N)C(=O)N[C@H](C(=O)N1CCC[C@H]1C(=O)N1CCC[C@H]1C(=O)N[C@H](C(=O)N[C@H](C(=O)N1CCC[C@H]1C(=O)N1CCC[C@H]1C(=O)N[C@@H](CCSC)C(=O)N[C@@H](COP(=O)(O)O)C(=O)N1CCC[C@H]1C(=O)N1CCC[C@H]1C(=O)N[C@H](C(=O)N[C@@H](CC(N)=O)C(=O)N[C@@H](CCCNC(=N)N)C(=O)O)[C@@H](C)O)[C@@H](C)OP(=O)(O)O)C(C)C)[C@@H](C)OP(=O)(O)O [AWSIpTPPVpTPPMpSPPTNR] (H-AWSI[pT]PPV[pT]PPM[pS]PPTNR-OH)
Skp1-Cdc4 complex
  Kd: 0.046 µM

## Ash1 pS294 peptide (from UniProt P34233)
[1]
  Kd: 6.5 µM

## Ash1 pSer294 phosphopeptide 283-299 (from UniProt P34233)
[2]
  Kd: 6.5 µM

## Ash1 pT286 peptide (from UniProt P34233)
[3]
  Kd: 900 nM

## Ash1 pT290 peptide (from UniProt P34233)
[4]
  Kd: 4.1 µM

## Ash1 pThr286 phosphopeptide 283-299 (from UniProt P34233)
[5]
  Kd: 900 nM

## Ash1 pThr290 phosphopeptide 283-299 (from UniProt P34233)
[6]
  Kd: 4.1 µM

## Ash1 triphosphorylated peptide 283-299 (from UniProt P34233)
[7]
  Kd: 70 nM

## Sic1 (from UniProt P38634)
[8]
  Kd: 1000 nM

## pSic1 1-90 (from UniProt P38634)
[9]
  Kd: 600 nM

## pSic1 (from UniProt P38634)
[9]
  Kd: 600 nM

## recombinant Skp1-Cdc4 complex (from UniProt P07834 1-779; P52286 1-194)
[10]
  Kd: 82 nM
[11]
  Kd: 69 nM
[12]
  Kd: 46 nM

## GMT[pS]PFNGLTSPQR[pS]PFPKS [Sic1^20pS69/pS80 phosphopeptide]
[13]
  Ka: 142000 M⁻¹
  Kd: 7.06 µM
R664Q Cdc4^WD40
  Ka: 267000 M⁻¹
  Kd: 3.74 µM

## GMT[pS]PFNGLTSPQRSPFPKS [Sic1^20pS69 phosphopeptide]
[13]
  Ka: 97600 M⁻¹
  Kd: 10.3 µM
R664Q Cdc4^WD40
  Ka: 51400 M⁻¹
  Kd: 19.5 µM

## GMTSPFNGLTSPQR[pS]PFPKS [Sic1^20pS80 phosphopeptide]
[13]
  Ka: 110000 M⁻¹
  Kd: 9.13 µM
R664Q Cdc4^WD40
  Ka: 104000 M⁻¹
  Kd: 9.58 µM
